One block for each molecule: values may come before it.
How the values were obtained:
AT1R (AT1R-WT) = target: T1, AT1R (AT1R-WT) (Homo sapiens, UniProt P30556); conditions: 10 µM irbesartan 15 min, then 5 nM AngII ± 10 µM LVV–hemorphin-7, 30 min, 37°C (Figure 5D)
T1 sequence (P30556 1-359): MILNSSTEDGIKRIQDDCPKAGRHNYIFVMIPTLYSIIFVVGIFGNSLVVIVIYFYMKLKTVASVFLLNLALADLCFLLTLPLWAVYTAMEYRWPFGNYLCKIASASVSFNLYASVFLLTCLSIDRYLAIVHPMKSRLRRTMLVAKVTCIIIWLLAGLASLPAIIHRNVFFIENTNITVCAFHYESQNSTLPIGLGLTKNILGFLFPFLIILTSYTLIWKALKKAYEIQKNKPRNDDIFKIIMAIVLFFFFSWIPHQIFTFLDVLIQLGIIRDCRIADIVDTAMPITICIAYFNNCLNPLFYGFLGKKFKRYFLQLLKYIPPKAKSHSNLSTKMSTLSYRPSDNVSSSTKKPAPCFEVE

[1] = target: T2, AT1R (AT1R-Rluc/Venus-Gαq coupling) (Homo sapiens, UniProt P30556); test: BRET between AT1R-Rluc and Venus-Gαq (dose-response / 30 min endpoint) in HEK293 cells; type: cell-based; set-up: expressed in transfected cells; host or cells: HEK293, transient transfection (Lipofectamine 2000)
T2 sequence (P30556 1-359): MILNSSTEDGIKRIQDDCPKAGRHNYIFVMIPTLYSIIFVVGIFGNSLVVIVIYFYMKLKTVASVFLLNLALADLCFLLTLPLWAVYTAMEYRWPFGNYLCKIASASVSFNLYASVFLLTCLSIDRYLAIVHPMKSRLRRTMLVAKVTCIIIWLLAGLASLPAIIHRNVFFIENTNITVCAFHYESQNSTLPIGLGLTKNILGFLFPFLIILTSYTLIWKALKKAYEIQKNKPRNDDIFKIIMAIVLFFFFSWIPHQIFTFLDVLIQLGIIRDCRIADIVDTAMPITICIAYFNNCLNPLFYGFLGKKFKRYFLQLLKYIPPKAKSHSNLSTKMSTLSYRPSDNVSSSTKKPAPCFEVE
Description: All assays were carried out 48 h posttransfection.
BRET technology was used for dose–response analysis as previously described ([Ayoub et al., 2015]; [Ayoub, 2016]; [Ayoub et al., 2016]). […] Following treatment, 10 µl of coelenterazine h (Promega) in PBS was added to a final concentration of 5 µM, and BRET measurements were carried out using the Tristar 2 multilabel plate reader (Berthold, Germany) allowing sequential measurements of light emission at 480 and 540 nm.

[2] = among hemorphin peptides; ref not attached to the sentence (next sentence: Karelin et al., 1994; Moeller et al., 1997); cited from earlier work
From the text: Hemorphins are endogenous hemoglobin-derived peptides that were initially reported to have opiate-like activity. They are normally released from hemoglobin beta-chain during physiological or pathophysiological conditions. These peptides are 4 to 10 amino acids long and share a common Tyr-Pro-Trp-Thr tetrapeptide core (YPWT or hemorphin-4) ([Liebmann et al., 1989]; [Zhao et al., 1995]; [Ivanov et al., 1997]; [Nyberg et al., 1997]). A number of different hemorphin peptides have been identified including hemorphin-4, hemorphin-7, and LVV–hemorphin-4, -6, and -7 ([Brantl et al., 1986]; [Piot et al ...

[3] = target: T2, AT1R (AT1R-Rluc/Venus-Gαq coupling); test: Real-time BRET kinetics, AT1R-Rluc and Venus-Gαq in HEK293 cells; conditions: 10 µM alone, sequential protocol, after 35 min (Figure 3C)
Description: HEK293 cells were maintained at 37°C, 5% CO2 in complete medium (Dulbecco modified Eagle medium (DMEM) containing 0.3 mg/ml glutamine, 100 IU/ml penicillin, and 100 µg/ml streptomycin) supplemented with 10% fetal calf serum (GIBCO BRL, Carlsbad, CA, USA). Transient transfections for BRET were carried out in 96-well plates and IP1 and ERK1/2 assays in six-well plates using Lipofectamine 2000 (Invitrogen). […] The plasmid solution was then mixed with 25 µl of serum-free DMEM containing 0.5 µl of Lipofectamine 2000 and incubated for 20 min at room temperature. Cells (10^5 in 150 µl/well) resuspended in DMEM supplemented with 10% fetal calf serum (FCS) were then incubated with the final DNA-Lipofectamine 2000 mix (50 µl/well) and seeded in 96-well plates. All assays were carried out 48 h posttransfection.
For the real-time BRET kinetics, different protocols were used. Cells were first washed with 50 µl/well of PBS and resuspended in 40 µl/well of PBS containing coelenterazine h (5 µM), and BRET signals were measured in real time for ∼5 min to determine the baseline.
All kinetic and the sigmoidal dose–response curves were fitted to appropriate nonlinear regression equations using GraphPad Prism software (San Diego, CA, USA). Statistical analyses were performed with two-way ANOVA and Tukey multiple-comparisons test to determine statistical significance between the different conditions.

AT1R = conditions: ref Li et al., 2018, cited from earlier work
From the text: Our seminal finding is of significant importance to hemorphin and GPCR pharmacology and their implication in human physiology. Indeed, in addition to hemorphin’s effect on opioid receptors ([Brantl et al., 1986]; [Davis et al., 1989]; [Liebmann et al., 1989]; [Glämsta et al., 1992]; [Yukhananov et al., 1994]; [Nyberg et al., 1997]; [Szikra et al., 2001]; [Cheng et al., 2012]), we report yet another GPCR member (AT1R) that is a target of hemorphins with the plausible implication in the physiology and pathophysiology of vascular and renal systems. The action of LVV–hemorphin-7 on AT1R is consist ...

[4] = target: AT1R-RlucII (angiotensin II type 1 receptor fused to Renilla luciferase) (human) (UniProt P30556)
[5] = target: AT1R-RlucII (angiotensin II type 1 receptor fused to Renilla luciferase) (human) (UniProt P30556); remark: listed apart in the source
[6] = target: AT1R-RlucII (angiotensin II type 1 receptor fused to Renilla luciferase) (human) (UniProt P30556); remark: listed apart in the source
[7] = target: AT1R-RlucII (angiotensin II type 1 receptor fused to Renilla luciferase) (human) (UniProt P30556); remark: listed apart in the source
[8] = target: untagged AT1R (AT1R-WT) (human) (UniProt P30556)

Molecule: CCCCC1=NC2(CCCC2)C(=O)N1Cc1ccc(-c2ccccc2-c2nnn[nH]2)cc1 [irbesartan]
inhibition of AngII-mediated IP1 production and its potentiation by LVV–hemorphin-7 (AT1R (AT1R-WT)): completely abolished | inhibition of AngII-mediated BRET signals and of their potentiation by LVV–hemorphin-7 ([1]; 10 µM irbesartan 15 min, then 10 nM AngII ± 10 µM LVV–hemorphin-7, 30 min, 37°C (Figure 4A), n = 3): full inhibition

Molecule: CC(C)C[C@H](N)C(=O)N[C@H](C(=O)N[C@H](C(=O)N[C@@H](Cc1ccc(O)cc1)C(=O)N1CCC[C@H]1C(=O)N[C@@H](Cc1c[nH]c2ccccc12)C(=O)N[C@H](C(=O)N[C@@H](CCC(N)=O)C(=O)N[C@@H](CCCNC(=N)N)C(=O)N[C@@H](Cc1ccccc1)C(=O)O)[C@@H](C)O)C(C)C)C(C)C [LVV–hemorphin-7]
stability [2]: most stable form | BRET increase, LVV–hemorphin-7 alone [3]: ~10% | EC50 of potentiation of AngII-mediated BRET (in words) ([1]; 15 min preincubation, then 10 nM AngII 20 min (Figure 2E)): micromolar range

Molecule: NC(CCS)C(=O)O (centres unmarked) [homocysteine]
binding site on AT1R (AT1R; binding experiments): binding of homocysteine to the orthosteric binding site of AT1R | positive allosteric modulation of AT1R (AT1R): PAM of AT1R

Log EC50 of LVV–hemorphin-7 for potentiation of the BRET increase between AT1R-Rluc and Venus-Gαq induced by 10 nM AngII (log (concentration unit not given)) [4]: -5.41 | Log EC50 of LVV–hemorphin-7 for potentiation of the BRET increase between AT1R-Rluc and yPET–β-arrestin 2 induced by 10 nM AngII (log (concentration unit not given)) [4]: -5.48 | E max (%) of AngII with LVV–hemorphin-7, BRET dose–response, AT1R-Rluc + Venus-Gαq; AngII without LVV–hemorphin-7 taken as 100% [5]: 109% | E max (%) of AngII with LVV–hemorphin-7, BRET dose–response, AT1R-Rluc + yPET–β-arrestin 2; AngII without LVV–hemorphin-7 taken as 100% [5]: 104% | E max (%) of AngII with LVV–hemorphin-7, BRET kinetics 1 (Figures 3A, B), AT1R-Rluc + Venus-Gαq; 10 nM AngII alone taken as 100% [5]: 263% | E max (%) of AngII with LVV–hemorphin-7, BRET kinetics 1 (Figures 3A, B), AT1R-Rluc + yPET–β-arrestin 2; 10 nM AngII alone taken as 100% [5]: 240% | E max (%) of AngII with LVV–hemorphin-7, BRET kinetics 2 (Figures 3C, D), AT1R-Rluc + Venus-Gαq; 10 nM AngII alone taken as 100% [5]: 171% | E max (%) of AngII with LVV–hemorphin-7, BRET kinetics 2 (Figures 3C, D), AT1R-Rluc + yPET–β-arrestin 2; 10 nM AngII alone taken as 100% [5]: 200% | BRET increase in sequential real-time kinetics (AT1R-Rluc with Venus-Gαq or yPET–β-arrestin 2), 10 µM LVV–hemorphin-7 alone, after 35 min [6]: 10% | ERK1/2 phosphorylation (folds over untreated cells), cells coexpressing AT1R-Rluc and Venus-Gαq, cotreatment with 10 nM AngII and 10 µM LVV–hemorphin-7 for 5 min [7]: 6.71 folds | ERK1/2 phosphorylation (folds over untreated cells), cells coexpressing AT1R-Rluc and Venus-Gαq, pretreatment with LVV–hemorphin-7 for 15 min followed by AngII for 5 min [7]: 6.7 folds | ERK1/2 phosphorylation (folds over untreated cells), cells expressing AT1R-WT, 10 µM LVV–hemorphin-7 alone, 5 min [8]: 6.74 folds | ERK1/2 phosphorylation (folds over untreated cells), cells expressing AT1R-WT, cotreatment with AngII and LVV–hemorphin-7 [8]: 12.8 folds
B1: LVV–hemorphin-7 (peptide)
peptide: LVVYPWTQRF

— publication PMC6823245, “Positive Modulation of Angiotensin II Type 1 Receptor–Mediated Signaling by LVV–Hemorphin-7” (Frontiers in Pharmacology, 2019)
